Results on three molecules are retold here after patent publication US20260022176A1 (PARAGON THERAPEUTICS, published 2026).

Several values for one entry are separate records, joined by “and”; a condition that tells them apart may be missing. Equal values may be shown once.

Test [1] has as its target T1, rat α4β7 integrin on rat PBMCs (rat, UniProt D3ZMQ3 38-1036; G3V7M2 20-791).
T1 construct: whole, on cells; That the target on them is α4β7 is inferred from the purpose of the study; also called cells isolated from rats
In words: flow cytometry on cryopreserved rat PBMCs.

Test [2] has as its target T2, monkey α4β7 integrin on monkey PBMCs (monkey).
T2 construct: whole, on cells; Receptor occupancy on CD4+, CD20+ and CD45RO+ cells from monkey donors
In words: receptor occupancy: competition with fluorescently labeled antibody, flow cytometry; CD45RO+ memory T cells, monkey PBMCs; n = 1 donor. Here is the method: (§1) The IC₅₀ values for competitive inhibition were determined by titrating unlabeled Ab001 into samples equilibrated with EC₅₀ concentrations of fluorescently labeled Ab001. Ab001 and Comparator Antibody Receptor Occupancy (IC₅₀) on CD4+, CD20+, and CD45RO+Cells from Human and Monkey Donors are shown in Table 2B.

The target of test [3] is T2, monkey α4β7 integrin on monkey PBMCs. In words: receptor occupancy: competition with fluorescently labeled antibody, flow cytometry; all cell types, monkey PBMCs; mean, n = 7. Here is the method:
as §1

Test [4] has the same target. In words: receptor occupancy: competition with fluorescently labeled antibody, flow cytometry; CD4+ Th cells, monkey PBMCs; range, n = 3 donors. Here is the method:
as §1

A further test addresses T3, Cyno- α4β7 (Cyno).
T3 construct: SPR antigen; construct not described; also called cynomolgus α4β7 integrin
The test is described as follows: SPR with multiple cycle kinetics.

Another test has as its target T4, Dog- α4β7 (Dog, UniProt A0A8I3PRY8 36-976; A0A8I3P7W0 20-723).
T4 construct: SPR antigen; construct not described; also called dog α4β7 integrin; copies: 1 + 1
The test is described as follows: SPR with multiple cycle kinetics.

The next test deals with T5, Rabbit- α4β7 (Rabbit, UniProt G1TY34 34-977; G1SFE7 20-723).
T5 construct: SPR antigen; construct not described; also called rabbit α4β7 integrin; copies: 1 + 1
In words: SPR with multiple cycle kinetics.

Test [5] deals with T6, mouse α4β7 integrin on mouse PBMCs (mouse, UniProt Q00651 41-1039; P26011 20-806).
T6 construct: whole, on cells; That the target on them is α4β7 is inferred from the purpose of the study; also called cells isolated from mice
In words: flow cytometry on cryopreserved mouse PBMCs.

Test [6] has as its target T2, monkey α4β7 integrin on monkey PBMCs. In words: receptor occupancy: competition with fluorescently labeled antibody, flow cytometry; CD20+ B cells, monkey PBMCs; range, n = 3 donors. How it is done: as §1
The target of test [7] is α4β1 integrin on cells (α4β1-positive Ramos cells; HuT-78 cells) (UniProt P13612 34-1032; P05556 21-798, limits assumed). The test is described as follows: cell-based or functional assay.

B1: α4β7 binding antibody Ab001 (antibody, human IgG1, kappa)
heavy: QVQLVQSGAEVKKPGASVKVSCKGSGYTFTSYWMHWVRQAPGQRLEWIGEIDPSESNTNYNQKFKGRVTLTVDISASTAYMELSSLRSEDTAVYYCARGGYDGWDYAIDYWGQGTLVTVSSASTKGPSVFPLAPSSKSTSGGTAALGCLVKDYFPEPVTVSWNSGALTSGVHTFPAVLQSSGLYSLSSVVTVPSSSLGTQTYICNVNHKPSNTKVDKKVEPKSCDKTHTCPPCPAPELAGAPSVFLFPPKPKDTLYITREPEVTCVVVDVSHEDPEVKFNWYVDGVEVHNAKTKPREEQYNSTYRVVSVLTVLHQDWLNGKEYKCKVSNKALPAPIEKTISKAKGQPREPQVYTLPPSRDELTKNQVSLTCLVKGFYPSDIAVEWESNGQPENNYKTTPPVLDSDGSFFLYSKLTVDKSRWQQGNVFSCSVMHEALHNHYTQKSLSLSPG
light: DVVMTQSPLSLPVTPGEPASISCRSSQSLAKSYGNTYLSWYLQKPGQSPQLLIYGISNRFSGVPDRFSGSGSGTDFTLKISRVEAEDVGVYYCLQGTHQPYTFGQGTKVEIKRTVAAPSVFIFPPSDEQLKSGTASVVCLLNNFYPREAKVQWKVDNALQSGNSQESVTEQDSKDSTYSLSSTLTLSKADYEKHKVYACEVTHQGLSSPVTKSFNRGEC
notes: also called long acting α4β7 targeting molecule; Ab001-A647
As to B1, the binding result in test [1] and in test [5] was “no binding” each time. In addition, the IC50 in test [2] is 0.53 nM; in [3], 0.5 nM; in test [4] it was 0.49 nM and 0.54 nM; in [6], 0.46 nM and 0.5 nM. Further, the dissociation constant Kd amounted to 2.72 nM with Cyno- α4β7, 4.81 nM in the test with Dog- α4β7 and 6.26 nM with Rabbit- α4β7.

B2: comparator antibody (antibody, human IgG1, kappa)
heavy: not shown
light: DVVMTQSPLSLPVTPGEPASISCRSSQSLAKSYGNTYLSWYLQKPGQSPQLLIYGISNRFSGVPDRFSGSGSGTDFTLKISRVEAEDVGVYYCLQGTHQPYTFGQGTKVEIKRTVAAPSVFIFPPSDEQLKSGTASVVCLLNNFYPREAKVQWKVDNALQSGNSQESVTEQDSKDSTYSLSSTLTLSKADYEKHKVYACEVTHQGLSSPVTKSFNRGEC
Regarding B2, the binding result in test [1] and in test [5] was “no binding” throughout. Also, the concentration for half-maximal inhibition (IC50) in test [2] is 0.58 nM; in [3], 0.56 nM; in test [4], 0.48 nM and 0.6 nM; in test [6], 0.42 nM and 0.66 nM. The results for the Kd in the test with Cyno- α4β7, in the test with Dog- α4β7 and with Rabbit- α4β7 were 1.2 nM, 1.77 nM and 5.34 nM, respectively.

B3: Natalizumab (antibody, V domains shown)
VH: QVQLVQSGAEVKKPGASVKVSCKASGFNIKDTYIHWVRQAPGQRLEWMGRIDPANGYTKYDPKFQGRVTITADTSASTAYMELSSLRSEDTAVYYCAREGYYGNYGVYAMDYWGQGTLVTVSS
VL: DIQMTQSPSSLSASVGDRVTITCKTSQDINKYMAWYQQTPGKAPRLLIHYTSALQPGIPSRFSGSGSGRDYTFTISSLQPEDIATYYCLQYDNLWTFGQGTKVEIK
As to B3, the “VCAM-1 Inhibition IC50 (adhesion of HuT-78 cells to coated recombinant VCAM-1)” value in test [7] came out at 0.23 nM.
